Assay results reported in PMC10404669, “Vanillyl alcohol oxidase from Diplodia corticola: Residues Ala420 and Glu466 allow for efficient catalysis of syringyl derivatives” (The Journal of Biological Chemistry, 2023).

What was measured:
[1] = substrate: C=CCc1ccc(O)c(OC)c1; experiment: steady-state kinetics, purified enzyme, xylenol orange H2O2 assay (KM, Hill fit); format: biochemical, Diplodia corticola; details: FAD (covalently bound) catalytic center; pH 7.5; 25.0 °C
[2] = substrate: CCCCOCc1ccc(O)c(OC)c1; experiment: Michaelis-Menten kinetics, purified enzyme, xylenol orange H2O2 assay (KM); format: biochemical, Diplodia corticola; details: FAD (covalently bound) catalytic center; pH 7.5; 25.0 °C
[3] = substrate: CCOCc1ccc(O)c(OC)c1; experiment: as above; format: biochemical, Diplodia corticola; details: FAD (covalently bound) catalytic center; Ala420 and Glu466 near the substrate (docking); pH 7.5; 25.0 °C
[4] = substrate: COCc1ccc(O)c(OC)c1; experiment: as above; format: biochemical, Diplodia corticola; details: FAD (covalently bound) catalytic center; pH 7.5; 25.0 °C
[5] = substrate: COc1cc(CO)ccc1O; experiment: as above; format: biochemical, Diplodia corticola; details: FAD (covalently bound) catalytic center; pH 7.5; 25.0 °C
[6] = substrate: CCOCc1ccc(O)c(OC)c1; experiment: as above; format: biochemical, Penicillium simplicissimum; details: FAD (covalently bound) catalytic center; pH 7.5; 25.0 °C
[7] = substrate: COCc1ccc(O)c(OC)c1; experiment: as above; format: biochemical, Penicillium simplicissimum; details: FAD (covalently bound) catalytic center; pH 7.5; 25.0 °C
[8] = substrate: COc1cc(CO)ccc1O; experiment: as above; format: biochemical, Penicillium simplicissimum; details: FAD (covalently bound) catalytic center; pH 7.5; 25.0 °C
purified protein = substrate: C=CCc1ccc(O)c(OC)c1; experiment: purified protein; format: biochemical, Penicillium simplicissimum; details: FAD (covalently bound) catalytic center; pH 7.5; 25.0 °C

Row | Protein | Km [1] [µM] | kcat [1] [s⁻¹] | Km [2] [µM] | kcat [2] [s⁻¹] | Km [3] [µM] | kcat [3] [s⁻¹] | Km [4] [µM] | kcat [4] [s⁻¹] | Km [5] [µM] | kcat [5] [s⁻¹] | Km [6] [µM] | kcat [6] [s⁻¹] | Km [7] [µM] | kcat [7] [s⁻¹] | Km [8] [µM] | kcat [8] [s⁻¹] | Km (purified protein) [µM] | kcat (purified protein) [s⁻¹]
1 | DcVAO (vanillyl alcohol oxidase) (Diplodia corticola) (protein) MSLSRPLALPPGVSESTFHQFIERITKTTPDVTIVESKDQFPDGGYHEPPSSHDPFYVQDKDHFIASAFVCPRSVDEVQDIVRAAGDFVIPLWPTSLGRNLGYGGAAPRVRGSVVLNLGKHMNRILEVNVEGAYALVEPGVTFEALHNYLVEHNLRDKLWLDVPDLGGGSVLGNTLERGVGYTPYGDHFMMHSGMEVVLANGELLRTGMGALPAPKSETEGVTKLHEEPGNKCWQLFPYGFGPYNDGLFSQSNLGIVTKLGLGLMPNPGGYQSYLITIPGEEDLHKAVEIIRPLRLNNVIQNVPTLRYVLLDAGMMGHKSDYTSSTSPIDEATTDAIAKKLNLGRWNFYGALYGPPEIRTAMWKLIHAAFSAIPGARFFFPDDVADPRAVLHNRHNVLQGIPSYEELRWVDWVPNGAHVAFSPISRISGADAARQVDLAKRRCRDAGFDYMGTFTVGMREMHHIVEIVFDRTDAGQRKRAEALVRGLVDECAALGWGEYRTHLAFMDQIAGTYGWGGGALGRFNERVKEALDPKGILAPGKSGVWGSRFGELKGKL | 60 ± 3 | 10.3 ± 0.1 | 258 ± 27 | 2.1 ± 0.1 | 198 ± 19 | 4.7 ± 0.2 | 263 ± 12 | 1.9 ± 0.01 | 297 ± 21 | 4 ± 0.1 | – | – | – | – | – | – | – | –
2 | PsVAO (vanillyl alcohol oxidase) (Penicillium simplicissimum) (protein) MSKTQEFRPLTLPPKLSLSDFNEFIQDIIRIVGSENVEVISSKDQIVDGSYMKPTHTHDPHHVMDQDYFLASAIVAPRNVADVQSIVGLANKFSFPLWPISIGRNSGYGGAAPRVSGSVVLDMGKNMNRVLEVNVEGAYCVVEPGVTYHDLHNYLEANNLRDKLWLDVPDLGGGSVLGNAVERGVGYTPYGDHWMMHSGMEVVLANGELLRTGMGALPDPKRPETMGLKPEDQPWSKIAHLFPYGFGPYIDGLFSQSNMGIVTKIGIWLMPNPRGYQSYLITLPKDGDLKQAVDIIRPLRLGMALQNVPTIRHILLDAAVLGDKRSYSSRTEPLSDEELDKIAKQLNLGRWNFYGALYGPEPIRRVLWETIKDAFSAIPGVKFYFPEDTPENSVLRVRDKTMQGIPTYDELKWIDWLPNGAHLFFSPIAKVSGEDAMMQYAVTKKRCQEAGLDFIGTFTVGMREMHHIVCIVFNKKDLIQKRKVQWLMRTLIDDCAANGWGEYRTHLAFMDQIMETYNWNNSSFLRFNEVLKNAVDPNGIIAPGKSGVWPSQYSHVTWKL | – | – | – | – | – | – | – | – | – | – | 86 ± 3 | 2.6 ± 0.02 | 155 ± 5 | 7.9 ± 0.1 | 144 ± 10 | 6.7 ± 0.1 | 67 ± 2 | 18.7 ± 0.5
